± gives the uncertainty stated by the source.
Assay: protein stability index of a GFP-peptide fusion (yeast GPS) (PSI 1-4); higher = more stable; sorted into four equal gates, so the index is relative within each strain
Outline: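 The protein stability index combines read frequencies across sorting gates, each weighted by its gate number and then summed. To obtain those frequencies, a pooled yeast library of GFP fusions to tiled 17-residue yeast protein peptides, on a plasmid also expressing Cherry, was grown to mid-log phase in leucine-free medium. The cells were sorted into four equal gates by GFP/Cherry ratio before plasmid amplification by PCR and Illumina sequencing.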

Row | Sequence | protein stability index (doa10∆) | protein stability index (pdr5∆) | protein stability index (san1∆) | protein stability index (ubr1∆)
1 | SMATPTHSDSHEDMKRR [ROX3] | 2.77 ± 0.11 | 2.94 ± 0.11 | 2.53 ± 0.091 | 2.73 ± 0.04
2 | DDGDDEDLLECLDRCKE [MTR3] | 2.57 ± 0.097 | 3.08 ± 0.084 | 2.87 ± 0.085 | 2.77 ± 0.11
3 | NDILDELLCGMANKEWR [ECM29] | 2.37 ± 0.14 | 1.47 ± 0.098 | 2.72 ± 0.15 | 1.6 ± 0.061
4 | LTSFAEENNYQYGYSGS [SNF6] | 2.08 ± 0.064 | 2.22 ± 0.093 | 2.74 ± 0.11 | 2.48 ± 0.066
5 | LGNEKNQASTSKRVYKI [CDC53] |  | 2.83 ± 0.12 | 2.92 ± 0.096 | 
6 | LIEEEVEQDEGQCRTEL [YCS4] | 3.59 ± 0.13 | 3.53 ± 0.15 |  | 3.45 ± 0.12
7 | YVLRNVLRIPEEYLDAN [MTW1] | 2.67 ± 0.12 | 2.33 ± 0.15 | 3 ± 0.061 | 2.82 ± 0.088
8 | TKTVKRASKALIERYYP [RPS17A] |  | 2.57 ± 0.21 |  | 
9 | HQFHDILEEKTDLHLPK [NSL1] | 2.35 ± 0.07 | 2.29 ± 0.065 | 2.27 ± 0.076 | 2.38 ± 0.054
10 | SLINSHLKILASSNFPF [RPC82] | 2.64 ± 0.066 | 2.3 ± 0.075 | 2.28 ± 0.073 | 2.02 ± 0.042
11 | SIDNDFSEEKAEEFDFN [YAR002W/NUP60] | 3.19 ± 0.14 | 3.02 ± 0.11 | 3.17 ± 0.092 | 3.12 ± 0.1
12 | SKQIFTHPKDTFYITRE [ARP9] | 3.11 ± 0.065 | 3.09 ± 0.056 | 2.93 ± 0.038 | 3.23 ± 0.039
13 | TENEKFISYHDKYLCML [NUT1] | 2.91 ± 0.056 | 3 ± 0.055 | 3.23 ± 0.049 | 3.11 ± 0.053
14 | TKIFNSVAEVFQKAQGS [YCG1] | 1.89 ± 0.12 | 1.55 ± 0.23 |  | 1.5 ± 0.07
15 | EAIRDPKNSSSPVQIAF [SSN8] | 2.55 ± 0.17 | 2.96 ± 0.15 | 1.92 ± 0.22 | 2.98 ± 0.12
16 | KNSSTSNTEPIPRSNRH [MED1] | 3.1 ± 0.14 | 3.26 ± 0.12 | 2.91 ± 0.091 | 3.18 ± 0.063
17 | FDNKSTSEEQEALLRSL [SNF2] | 3.32 ± 0.072 | 3.6 ± 0.18 | 2.68 ± 0.26 | 2.73 ± 0.2
18 | ASGFGFGGSQPNSGTAT [YGR119C/NUP57] | 3.19 ± 0.14 | 2.74 ± 0.086 | 2.4 ± 0.11 | 2.87 ± 0.094
19 | KLQLSFVLQMVGKTAQS [SRP72] |  |  | 1.42 ± 0.16 | 
20 | FEWDISNSDNCPEEFAE [SNF5] | 3.12 ± 0.11 | 3.19 ± 0.15 | 3.11 ± 0.1 | 3.29 ± 0.072
21 | TSLVANENDKIYLLFQS [YDL116W/NUP84] | 2.37 ± 0.058 | 2.59 ± 0.05 | 2.42 ± 0.054 | 2.79 ± 0.035
22 | DDDDEDDDEIVMPVPNV [SKP1] | 3.3 ± 0.064 | 3.06 ± 0.099 | 3.08 ± 0.11 | 3.21 ± 0.11
23 | SPIVNVLEDVYRCFAQL [RRI2] | 2.53 ± 0.18 | 3.19 ± 0.17 | 2.9 ± 0.14 | 3.09 ± 0.083
24 | LPDPKPLPLDLNVQVWH [ITC1] | 2.8 ± 0.064 | 2.72 ± 0.051 | 3.01 ± 0.063 | 2.55 ± 0.038
25 | NVIDTQRKNGVTNSPLF [ECM29] | 3 ± 0.25 | 3.19 ± 0.091 | 3.09 ± 0.21 | 3.12 ± 0.11
26 | EWKSNHKKKRSNAAGAD [SRB8] | 1.33 ± 0.13 | 1.72 ± 0.2 | 1.5 ± 0.17 | 1.83 ± 0.054
27 | QEKMDPNNSRDDYKDLT [IRR1] | 3.33 ± 0.078 | 3.27 ± 0.083 | 3.23 ± 0.066 | 3.25 ± 0.076

Row | Sequence | protein stability index (doa10∆) | protein stability index (pdr5∆) | protein stability index (san1∆) | protein stability index (ubr1∆)
28 | ALLRPGRLDRKVEIPLP [RPT4] | 2.99 ± 0.28 |  |  | 
29 | SKRGNDKKHFNNKNKRV [RPC53] | 3.17 ± 0.14 | 2.7 ± 0.11 | 3.09 ± 0.14 | 2.05 ± 0.09
30 | LAVIMDNIGEIDESLFN [YCG1] | 3.08 ± 0.12 | 3.1 ± 0.064 | 3.13 ± 0.059 | 3 ± 0.12
31 | NDNYSSDMENDNLLLNL [REC8] | 2.9 ± 0.09 | 2.96 ± 0.12 | 2.82 ± 0.1 | 3.09 ± 0.12
32 | IPYAAKLLFQELLSMNI [RET1] | 1.55 ± 0.1 | 1.46 ± 0.084 | 1.31 ± 0.16 | 1.35 ± 0.056
33 | LPQSEWKAPSSIVLDSE [DIS3] | 3 ± 0.062 | 3.34 ± 0.069 | 3.14 ± 0.052 | 3.15 ± 0.05
34 | TFPVGRVHRLLRRGNYA [HTA1] | 2.38 ± 0.13 | 2.86 ± 0.14 | 2.5 ± 0.087 | 2.27 ± 0.12
35 | GLFPFESYKPSVQLPDM [SWI3] | 3.05 ± 0.09 | 2.88 ± 0.081 | 2.96 ± 0.067 | 2.81 ± 0.07
36 | MRFNIEIIADWIWDMNV [BRR2] | 2.61 ± 0.066 | 2.12 ± 0.075 | 2.7 ± 0.088 | 2.39 ± 0.041
37 | LYQLFKTCIQGINSPLS [YJL039C/NUP192] | 1.83 ± 0.12 | 2.05 ± 0.087 | 1.64 ± 0.16 | 2.04 ± 0.11
38 | QDENIGLSMLAKLKELA [RPC31] | 3.14 ± 0.071 | 3.46 ± 0.074 | 3.05 ± 0.092 | 3.16 ± 0.053
39 | ASGSINRKVLQALEKIG [RPS19A] | 1.39 ± 0.071 | 2 ± 0.12 | 1.67 ± 0.11 | 1.99 ± 0.066
40 | MSRSLANGIINVKEITE [SMC3] | 2.63 ± 0.092 | 2.8 ± 0.073 | 2.77 ± 0.12 | 2.87 ± 0.064
41 | TTIGDTTDKNTTDDKSM [BRN1] | 3.24 ± 0.082 | 3.33 ± 0.059 | 3.44 ± 0.044 | 3.27 ± 0.043
42 | TTVYRYSAAKKIPDTYT [YAR002W/NUP60] | 1.34 ± 0.087 | 2.07 ± 0.094 | 1.42 ± 0.14 | 1.45 ± 0.077
43 | TCQILESGEDEAEFSLR [RRP46] |  | 2.62 ± 0.28 |  | 3.46 ± 0.19
44 | YKIKGRNNSKSVLLKKL [SRP72] |  | 1.56 ± 0.11 | 2.42 ± 0.26 | 1.06 ± 0.11
45 | KFSSRHGQKGVCGIIVK [RET1] | 3.56 ± 0.095 | 3.51 ± 0.092 | 3.71 ± 0.051 | 3.14 ± 0.12
46 | PQINILQPIKGESARRF [RPC40] | 2.17 ± 0.096 | 2.58 ± 0.1 | 2.43 ± 0.12 | 2.88 ± 0.12
47 | DDEDEDDSDNVMSSDDE [PRE10] | 3.17 ± 0.094 | 3.46 ± 0.12 | 3.44 ± 0.15 | 3.12 ± 0.17
48 | NVTKSSVGVIINKMVGN [RPL21A] | 2.17 ± 0.099 | 2.98 ± 0.11 | 2.46 ± 0.19 | 2.91 ± 0.13
49 | NDEVNEDEEDDNISSFH [YCG1] | 3.18 ± 0.12 | 3.28 ± 0.12 | 3.31 ± 0.074 | 3.33 ± 0.12
50 | LPEILNVLCVNIKSNDF [ECM29] | 1.56 ± 0.046 | 1.58 ± 0.047 | 1.37 ± 0.088 | 1.58 ± 0.035
51 | KMVIAELLPHYPFVTND [YJR042W/NUP85] | 2.83 ± 0.09 | 2.75 ± 0.092 | 2.87 ± 0.052 | 2.99 ± 0.073
52 | DAFNMLSLTTVPCDRIE [SNF6] | 2.18 ± 0.05 | 2.57 ± 0.064 | 2.43 ± 0.091 | 2.4 ± 0.069
53 | VLCNSNISKSRAKPVTN [RRP6] | 2.3 ± 0.083 | 2.67 ± 0.096 | 2.09 ± 0.11 | 2.14 ± 0.067
54 | SKNFNVILASSLNEVGT [YML103C/NUP188] | 2.44 ± 0.045 | 2.42 ± 0.043 | 2.56 ± 0.051 | 2.39 ± 0.036

From the supplement of paper PMC9732359
